Data on 4 molecules can be found in paper PMC8219104 (2021).

The chains are these.
B1: Sybody Sb15 (VHH)
VHH: QVQLVESGGGLVQAGGSLRLSCAASGFPVKNFEMEWYRKAPGKEREWVAAIQSGGVETYYADSVKGRFTISRDNAKNTVYLQMNSLKPEDTAVYYCFVYVGRSYIGQGTQVTVS
B2: Sybody Sb68 (VHH)
VHH: QVQLVESGGGSVQAGGSLRLSCAASGSISSITYLGWFRQAPGKEREGVAALITVNGHTYYADSVKGRFTVSLDNAKNTVYLQMNSLKPEDTALYYCAAAAWGYAWPLHQDDYWYWGQGTQVTVSA
B3: Sybody Sb16 (VHH)
VHH: QVQLVESGGGLVQAGGSLRLSCAASGFPVAYKTMWWYRQAPGKEREWVAAIESYGIKWTRYADSVKGRFTISRDNAKNTVYLQMNSLKPEDTAVYYCIVWVGAQYHGQGTQVTVSA
B4: Sybody Sb14 (VHH)
VHH: QVQLVESGGGLVQAGGSLRLSCAASGFPVQAREMEWYRQAPGKEREWVAAIKSTGTYTAYAYSVKGRFTISRDNAKNTVYLQMNSLKPEDTAVYYCYVYVGSSYIGQGTQVTVSA

The target in one test is T1, SARS-CoV-2 spike receptor-binding domain (RBD), amino acids 333 to 529, bacteria-expressed and refolded (SARS-CoV-2, UniProt P0DTC2 333-529). As to the kind of experiment: SPR.
One may read the koff as the first-order rate constant of dissociation. Lower therefore signals a long-lived complex. B1 registered a koff of 0.011 s⁻¹.

B2 displayed a koff of 0.023 s⁻¹. The same measure, in the same setting: for B3 the value was 0.02 s⁻¹. The same measure, in the same setting: the same measure for B4: 0.007 s⁻¹.

The next test has as its target T1, SARS-CoV-2 spike receptor-binding …. As to the kind of experiment: SPR. This is another data set of the same source. (Surface plasmon resonance follows binding to a sensor surface in real time, without labels.)
A word on the Kd: it is the equilibrium constant for the complex coming apart. A high value points to a looser complex. As to B3, the equilibrium dissociation constant (Kd) was determined as 40.6 nM.

In turn, B4 had a dissociation constant (Kd) of 13.8 nM.
